Assay results reported in the DeepSol protein solubility set.

Assay: soluble on expression in E. coli; label from the status in PepcDB or PDB records

Sequence | soluble on expression in E. coli
MTLPRFDQIRPKIEQHIREVKDFPKKGINFRDIMPLFTNPQLVNELCVVIADHVRHTVGHVDSVAGLEARGFLFGPQVAIQLGVPFVPIRKKGKLPGATIEASYVKEYGEDRVEIQEGAIKNGDIVFLIDDLLATGGTLRAATDLVVKAGGKVGEAFVLIELAPLNGRSKLPDVNLTTLISYDSA | not soluble
MGSDKIHHHHHHMASESNQVIQRLFQRFFRDELAGLSPADRAAFESEFEGRYGELLDRSSSATTTSFADLVGFGDGPIKPFDSLQMPLLRNDFDESIIPPQLQASAELYYIYQMDRMKLFQVVDVLRRLFQNGQIRIQRGPGARGLYILEKWRPIRYKRRDRLIAYRRVFNYGRAPVPAGAIVNRSFHFQLVAFMNAMSQYFQDLTIGQVIRGSSTINDRPFAALATVQRVGTDLRYHLDRSSYGNILALTRETGQYVQQIFELFDAPDIKKSFDANTKWDVIEAVANRHLGGATEMSERAKMADAGRRILQYIAENDFRTTITPAEFDADAKKMGAQADAWLAAYRLTREGRRFPGLDGDRVHWSYGLNRNTASRIAA | not soluble
MAHHHHHHMAECSGVADDDTTKKLLLEGDSALRQGRSYYQEALAKYTEALTHNPNSIRGLYSRAELLSMLRRRDACMSDLDQLLKLDSKHQRGLVLRSALYSQAGQLKEAVRDVEKLVEVMSEGGKAAKVQEYKAKLQQLRRYAEVWIPLQLKLQAAKQGAVTLSRDEQCACVGFLHDMIREFAKDNAGLRLQRAECALACGDNQAASEELKYVVQREPQNLDAVALGARALRALGALEQARRELRRCLSLDPEFALCAQLHKLVREQIRVTQGVEKALEEKDYGKVLKLIEGAMRFEENPPYKDQLLRWRCDAAVGMQDTKDGLPACDEAIQLYSPEDPTVVSILLQKLELYLMDGNVERAEEMLQRAQQLQPNDGKVNEYKRKMERIKRVGLRKNYYKILGVKKTADSSEIRRAYRHLAKTFHPDKLASQELSKEERAEADKRFRDINEAKEILLDDEKRARYDNGEDPTKPPGQDEHAFHGQPFNFPNEMFGQGGRFQQFYFHFD | not soluble
MGSDKIHHHHHHMGIHLDFGISPKTFRQTYLYQKPKLFKGAVRNLEAASCKYINEIYQRADPTAPLFHLRKKGAIVPKEEYVESFDDLGKTRYRFIKSVIYEHMKNGASLVYNHINNEPFSDHIARQVARFAGAHTIVSGYLAFGSDESYKNHWDTRDVYAIQLFGKKRWQLTAPDFPMPLYMQQTKDTDISIPEHIDMDIILEAGDVLYIPRGWWHRPIPLGCETFHFAVGTFPPNGYNYLEWLMKKFPTIESLRHSFSDWEQDRTRINDTAAQIAAMIADPVNYEAFSEDFLGKERTDTAFHLEQFANPNATPLSDDVRLRLNANNLDTLEKGYLIGNGMKISVDELGKKVLEHIGKNEPLLLKNLLVNFNQAKHEEVRKLIYQLIELDFLEIL | not soluble
MGSDKIHHHHHHMKVVFLICNPAAGGGRAGKIWNRVEDLLKKHGIDHKFAFTERPGHAMEISKKAFKEGYRRIAAFGGDGTVNEMVNGIFLNGYDLREVVFGWIPFGSGKDWARTIGVPLEIEEAIKMLKDGKEFVQDLGVGEYEKASGEIEKRAFVNVAGLFFDGFVTYRTNLLKRKNRVSYFSRIFSSIIEYDPPTARIQIDEKVWEKRVFSMNVGICKYNGGGMNQLPHAVPDDGLLAVTVINDIGKLRILANLHRVFNGKLLEHPGVEGYQAKKVVVEFQRDEPVEFDGESFWAKKIFFSIIPGVIRVLVKK | not soluble
MSLYGRHTISIILREIFRLMDYPSIDTLLESAHIVTLPMKYPFMGLSERQAVLFEGPNSWAEYSPFMGCNDTRMWLASAIEYGWGNTNVLSVPNLDLDNTNFASRSKYGYIANPQTSNKDHSDNKRFYTQTKNHREIPVNAILPDIPASKMSEILGKDLQGCKCVKIKVGKHFQDRDIHRIRAVLDFMGADTMLRLDANCKWNVSETLNNLDVLEDNDLLENVSYIEQPCRTTRELITLKQKMDTRGYVTKIAIDESLRDLLLHWQKNRKWSNNSGITYTTELRETLSACDMLVLKLQPMGGMRAVADLLESIKNNIKVNVGYTVSSSLETSLGIEMGLALALNLPNITLPVGLATAGLLDADITDDPLLPNKGYITPRKIEVNKKLLNRYAADKRHVVWWHRRIRAAHRALFQDLSDEGHHHHHH | not soluble
LSYHVIGPLRELTSTARRLGRGELDARVTYSGEDELAQLGERFNQMAGELKSIYGDLEERVEDKTRALSQSHQRLELLYASARRLGENPYDSRTLQPLLNQLEKVLDAGRVTLCLNKDGVERAYSSLTTTERPADFCLQGDCGSCREQASACDQPSSLAQPLLMQPLSIAGHRFGELFIESRSGRLENWQQQLIETFCDNIARTFALSLQQEQESRLALFAERGTIARELHDSLAQSLSYLKIQVSRLGTLLKREAPAEKIEDTLDELREGLNGAYRQLRELLTTFRLSLDEPSLEAALGNAVAEFGERGEVTIELDNRLQHVPLSPNEEIHVLQIVREALSNVVRHSQAQRAWVRLSSQADGQVSIAVEDDGVGFDPQQNRSGHYGLTIMQERGQTLGSQLRFEARAPHGTRVLFSFVPTALQP | not soluble
HSLFPIPRMGDSAAKIVSPQEALPGRKEPLVVAAKHHVNGNRTVEPFPEGTQMAVFGMGCFWGAERKFWTLKGVYSTQVGFAGGYTPNPTYKEVCSGKTGHAEVVRVVFQPEHISFEELLKVFWENHDPTQGMRQGNDHGSQYRSAIYPTSAEHVGAALKSKEDYQKVLSEHGFGLITTDIREGQTFYYAEDYHQQYLSKDPDGYCGLGGTGVSCPL | soluble
MAIYSFKMENISRGEGQSSVNSAAYRHRKVFFDNRTGEVCGRKTAHKKDLAFAQIFAPENTPSDLIVDSETLWNAVEASEKRKDARLAKEFKIALPAELTPEQSIELTKAFVLEHFTKQGIITDVVIHDINGHNPHIHIMGTTREVLSTGFGKKVREWDKPETLDSWRKGWQNICNEFLDLYGHDERIDHRSIRVQYKEALEQATAAATNEEKAIWLAKAIETNRDPILHIPRDRWGTLAAQEQRAAEQAIRDEQKKEAVEAYFTFKDLPLDIVVDVASFRVHALAEPEEIVIPDNTGKGSSTGSQKPVLVAPVPHTRTTLKTPSTSTARTLKRAPVKVKRKKVEPRQSGVFKRFTLLVVDYIREKFVWAKKKPVPVSVDAEHDERIAENYVFDEVQGIYVPRAEHERRARFNSDTYSPTPDEIRRFPRRPLKPDQANNTLDYIPTFSWDRKPSVLQLKPSGYRDKELEHHHHHH | not soluble
MAHHHHHHMSIDAGLCDRYVVFLDIDGVLLPVPKFTFGGGNLSGRCAQTLKRLIAALGGRDKVTLVLSSTWRNHPVMVDRLNTFMQKEAGDGIPVVSERTPNGTVLMSSVTYYADDPSEQRLVRDRVDEVYRWLHTHITDHPEAIGGRWFAIDDMQLDVDERMRGHFLHTQTDVGITEADVDTACAMIASHPSPTEAYAAAVAALADPALKAEEVEIQRVLQSRLEAQLAATTAELTEAQEKMAALSAEKKDLIKELAEKQRSIDDMRYRLAVYDFSKRYPCLATAVELAGTKSGAERRAMDAAIRTFVTLLMDRKELQKKMRSEAKKVKQAS | not soluble
HRQLLSRDTHGFNVTVTSTIPEDAGLGDQEALIMAAALAFAHDYEDVHTAPIKAKFADVCFQASQAATGRPHVRARFDSALRGLASDLNIVDYSDGSVTHFPHPLNTQSDYAAFVVIPPVGAEQTAEVERRQAFITSAEKAFGTDSLRVLPDARERVIEWLQAVHEVCGTDDVPTITEAANWLEFMENETQAAINAAQAIKSRRHAACFDIVSESQRNLESLYTITTTDAMLSQLCLSRGAVSAR | not soluble
MRPVLLLCCLFLSATAQAEDCSPQTSVGSWCELPLAALHPTQQNVGLLQVEDDQAKLAGKKPKALERYLRKKEIPVVIGPGGRFYLTDRHHLSSALWRLDPKQGVPVKVIGRLPQASDFWEKMQENHWVWLHDARGAEIPPEALPDALAGLGDDPYRALAGYAEDENAFDKDRQSYFIEFHWARYFGERMHWRPISRATLPDDLKQALRLACEPAARELPGYRQDCPH | soluble
PPHVKFIKEKDICSYEEASDPGHFRWYPKGKLMRDLLADYVYNLVVNMGAMPVETPIMYDLGNPAIREHADKFGERQYRFRQGNKELMLRFAACFGQFMMKKDMYLLPRYLPLKLYELSTYSFRYEQRGELVGLKRLRCFTMPDMHTVCLNLEQAMEEFEKQFWECLKTGDDLNLSYSVIFRFTKDFFDEHRDWFFKIAKEYKNKYGKDVILEILPKRKHYWVGKVDIAVIDSLGRPIENPTVQIDVESAKRFDIKVHTNEGEIYPIILHCSPTGSIERVLCGLLEKAA | not soluble
